From the nanobody polyreactivity screen of Harvey et al. (2022)

Experiment: yeast display, Sf9 membrane polyspecificity reagent, FACS + sequencing; frameworks hold sequencing errors
Procedure, shortened: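 A nanobody's polyreactivity label depends on the gate it was sorted from. Yeast display cells were stained with 10% biotinylated, detergent-solubilized Sf9 membrane reagent for 1 hour at 4 °C, enriched on streptavidin microbeads and sorted by FACS. The low and high (top ~1%) gates were set on anti-HA fluorescence for expression and streptavidin fluorescence for reagent binding.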

Sequence | polyreactivity (PSR sort gate)
QVQLVESGGGLVQAGGSLRLSCAASGFIFYHYAMGRYRQAPGKERELVAAISWNGGRTYYADSVKGRFTISRDNAKNTVYLQMNSLKPEDTAVYYCAAYWTRVERVYWGQGTQVTVSS | high polyreactivity
QVQLVESGGGLVQAGGSLRLSCAASGFIFYHYAMGWYRQAPGKRRELVAAISYSGGSTYYADSVKGRFTISRDNGKNTVYLQMNSLKPEDPAVYYCNAVYHTRLYTLSTFDYWGQGTQVTVSS | high polyreactivity
QVQLVESGGGLVQAGGSLRLSCAASGFIFYIYPMGWYRQAPGKERELLAAISWNGGSTYYADSVKGRFTISRDNAKNTVYLQMNSLNPEDTAVFYCATLARYRYGTGRFDYWGQGTQVTVSS | high polyreactivity
QVQLVESGGGLVQAGGSLRLSCAASGFIFYKYAMGWYRQAPGKEREFVAAISSRGSRTYYADSVKGRFTISRDNAKNTVYLQMNSLKPEDTAVYYCAAGYWARLYDYDYWGQGTQVTVSS | high polyreactivity
QVQLVESGGGLVQAGGSLRLSCAASGFIFYKYAMGWYRQAPGKERELVAAITARGGSTYYADSVKGRFTISRDNAKNTVYLQMNSLKPEDTAVYYCAADTYFSGAGGQAYQYDYWGQGTQVTVSS | high polyreactivity
QVQLVESGGGLVQAGGSLRLSCAASGFIFYKYAMGWYRQAPGKERELVAAITWRGGRTNYADSVKGRFTISRDNAKNTVYLQMNSLKPEDTAVYYCAADPWYSSYYYSYEYWGQGTQVTVSS | high polyreactivity
QVQLVESGGGLVQAGGSLRLSCAASGFIFYKYAMGWYRQAPGKERELVAGITWNVGSTYYADSVKGRFTISRDNAKNTVYLQMNSMKPEDTAVYYCAARHSYLGGTISLLYDYWGQGTQVTVSS | low polyreactivity
QVQLVESGGGLVQAGGSLRLSCAASGFIFYLYAMGWYRQAPGKERELVASINVSGASTRYADSVKGRFTISRDNAKNTDYLQMNSLKPEDTAVYYCAAPSRYDYWGQGTQVTVSS | low polyreactivity
QVQLVESGGGLVQAGGSLRLSCAASGFIFYLYTMGWYRQAPGKERELVAAITGGGGTYYADSVKGRFTISRDNAKNTVYLQMNSLKPEDTAVYYCAAEYYLYLWDEYDYWGQGTQVTVSS | high polyreactivity
QVQLVESGGGLVQAGGSLRLSCAASGFIFYPYAMAWYRQAPGKERELVAVITSGGRTYYADSVKGRFTISRDNAKNTVYLQMNSLKPEDTAVYYCAARYGRIHWKANWPEYGYWGQGTQVTVSS | low polyreactivity
QVQLVESGGGLVQAGGSLRLSCAASGFIFYPYAMGWYRQAPGKERELVAAITWSGSRTYYADSVKGRFTISRDNAKHTVYLQMNSLKPEDTAVYYCNKYPQPTAYDYWGQGTQVTVSS | high polyreactivity
QVQLVESGGGLVQAGGSLRLSCAASGFIFYRNTMGWYRQAPGKEREFVAAIRWRGGSTYYADSVKGRFTISRDNAKNTVYLQMNSLKPEDTAVYYCAAGTPWSVEGSYVTYPWNRYYYWGQGTQVTVSS | high polyreactivity
QVQLVESGGGLVQAGGSLRLSCAASGFIFYRYAMGWYRLAPGKERELVAAISSSGGSTYYADSVKGRFTISRDYAKYSVYLQMNSLKPEDTAVYYCAVDYWGQGTQVTVSS | high polyreactivity
QVQLVESGGGLVQAGGSLRLSCAASGFIFYRYAMGWYRQAPGKEREFVAAITRSAGGTYYADSVKGRFTISRDNEKNTVYLQMNSLKPEDTAVYYCAAVYRSGSRYYLGWYNYWGQGTQVTVSS | high polyreactivity
QVQLVESGGGLVQAGGSLRLSCAASGFIFYRYAMGWYRQAPGKERELVAAINWSGGGTYYADSVKGRFTISRDNAKNTVYLQMNSLKPEDTAVYYCAAGRSFRGSYWYEYWGQGTQVTVSS | high polyreactivity
QVQLVESGGGLVQAGGSLRLSCAASGFIFYRYAMGWYRQAPGKERELVAAISSSGGSTYYADSVKGRFTISRDNAKNTVYLQMNSLKPEDTAVYYCAAEPSGKRSKFYYLGQGTQVTVSS | high polyreactivity
QVQLVESGGGLVQAGGSLRLSCAASGFIFYRYAMGWYRQAPGKERELVAAITGSGARTYYADSVKGRFTISRDNAKNTVYLQMNSLKPEDTAVYYCAARYILSKYGSGVRYNYWGQGTQVTVSS | high polyreactivity
QVQLVESGGGLVQAGGSLRLSCAASGFIFYSNAMGWYRQAPGKERELVAGISRGGSTYYADSVKGRFTISRDNAKNTVYLQMNRLKPEDTAVYYCAAKISLGDDYWGQGTQVTVSS | low polyreactivity
QVQLVESGGGLVQAGGSLRLSCAASGFIFYSNPMGWYRQAPGKERELVAAITSGGSTYYADSVKGRFTISRDNAKNTVYLQMNSLKPEETAVYYCAAVVRVYFRGFTSYDYWGQGTQVTVSS | high polyreactivity
QVQLVESGGGLVQAGGSLRLSCAASGFIFYTYAMGWSRLAPGKEREFVASISKSGGRTYYADSVKRRFTMSRDNAKNTVYLQMISLKPEVTAVYYCNAYRSTHFFSYRDDYWGQGTQVTVSS | high polyreactivity
QVQLVESGGGLVQAGGSLRLSCAASGFIFYVNDMGWYRQAPGKERELVADISGGTSTNYADSVKGRFTMSRDNAKNTVYLQMNSLNPEDTAVYYCNKYVAYDYWGQGTQVTVSS | low polyreactivity
QVQLVESGGGLVQAGGSLRLSCAASGFIFYYAMGWYRPAPGKERELVAAISSGSSTYADSVKGRFTISRDNAKNTVYLQMNSLKPEDTAVYYCATRYSSWYSNRDYDYWGQGTQVTVSS | low polyreactivity

Sequence | polyreactivity (PSR sort gate)
QVQLVESGGGLVQAGGSLRLSCAASGFIFYYNAMGWSRQAPGKERELVASISRDCGRTYYADSVKGRFTISRDNAKNTVYLQMNSLKPEDTAVYYCAKKRINSRKYDYWGQGPQVTVSS | low polyreactivity
QVQLVESGGGLVQAGGSLRLSCAASGFIFYYNAMGWYRQAPGKERELVAAISSSAGSTYYADSVKGRFTISRDNAKNTVYLQMNSLKPEDTAVYYCDGSRPPNTSNTGYGSWGQGTQVTVSS | low polyreactivity
QVQLVESGGGLVQAGGSLRLSCAASGFIFYYNDMGWYRQAPGKERELVAAISGGVGSTYYADSVKGRFTISRDNAKNTVYLQMNSLKPEDSAVYYCATRRYSLTYGLGYDYWGQGTQVTVSS | low polyreactivity
QVQLVESGGGLVQAGGSLRLSCAASGFIFYYNTMGWYRQAPGKERELVAAISSGGRTYYADSVKGRFTISRDNAKNTVYLQMNSLKPEVTAVYYCNVVTYVKYGYWGQGTQVTVSS | high polyreactivity
QVQLVESGGGLVQAGGSLRLSCAASGFIFYYYAMGWYRQAPGKEREFVAGISRSGGSTYYADSVKGRFTISRDHAKNTVNLLQNSLKTEDTAVYYCNARPLYHFWYYSGEEYGYWGQGTQVTVSS | high polyreactivity
QVQLVESGGGLVQAGGSLRLSCAASGFIFYYYAMGWYRQAPGKERELVAGITATGGSTYYADSVKGRFTISRDNAKNTVYLQMNSLKPEDTAVYYCARGPSGTPNGNTPYGDNRYNSWGQGTQVTVSS | low polyreactivity
QVQLVESGGGLVQAGGSLRLSCAASGFIFYYYDMGWYRQAPGKERELVAAITYDGGSTYYADSVKGRFTSSRDNAKNTVYLQMNSLKPEDTAVYYCNAVYGQYYDYWGQGTQVTVSS | low polyreactivity
QVQLVESGGGLVQAGGSLRLSCAASGFIFYYYTMGWYRQAPGKEREFVAAISSSGTITYYADSVKGRFTISRDNAKNTVYLQMNSLKPEDTAVYYCNAELYYPYEFWRFSGYDYWGQGTQVTVSS | low polyreactivity
QVQLVESGGGLVQAGGSLRLSCAASGFIFYYYTMVWYRQAPGKERELVAAIRTGGGTNYADSVKGRFTISRDNAKNTVYLQRNSLKPEDTAVYYCAKGRQGVSYLTGTYGGRDYWGQGTQVTVSS | low polyreactivity
QVQLVESGGGLVQAGGSLRLSCAASGFIIDEYAMGWYRQAPGKERELVAAISWSGSRTYYADSVKGRFTISRDNAKNTVYLQMNSLKPEDTAVYYCAKVTGVGAGRRIYWGQGTQVTVSS | low polyreactivity
QVQLVESGGGLVQAGGSLRLSCAASGFIIDRNAMGWSRPAPGKERELVAAITWSTTSTYYADSVKGRFTISRDNAKNTVYLQMNSLKPEDTAVYYCAADITSPAYATYDYWGQGTQVTVSS | low polyreactivity
QVQLVESGGGLVQAGGSLRLSCAASGFIIDRYAMGWYRQAPGKERELVARISWSGGSTYYADSVKGRFTISRDNAKNTVYLQMNSLKPEDTAVYYCNKAAWWLQSRYDYWGQGTQVTVSS | high polyreactivity
QVQLVESGGGLVQAGGSLRLSCAASGFIIEAYTMGWYRQAPGKERELVAAITWTGGSTYYADSVKGRFTISRDNAKNTVYLQMNSLKPEDTAVYYCNVPYYSFRELSSYYWGQGTQVTVSS | high polyreactivity
QVQLVESGGGLVQAGGSLRLSCAASGFIIFQYAMGLYRQAPGKERELVAAISGSGVTTYYADSVKGRFTISRDNAKNNVYLQMNSLKPEDTAVYYCNAALSWKYDWGQGTQVTVSS | low polyreactivity
QVQLVESGGGLVQAGGSLRLSCAASGFIINGNDMGWYRQAPGKERELVAAISSSGGSTYYADSVKGRFTISRDNAKNTVYLQMNSRTPEDSAVYYCARRGKQVSGRYYYWGQGTQVSVSS | high polyreactivity
QVQLVESGGGLVQAGGSLRLSCAASGFIIPDYAMGWYRQAPVKERELVAAITSSGGRTYYADSVKVRFTISRDNAKNTVYLQMNSLIPEDTAVYYCAARTNSPRGYGSDYWGQGTQVTVSS | high polyreactivity
QVQLVESGGGLVQAGGSLRLSCAASGFIISGYAMGWYRQAPGKERELVAAISWSGGRTYYADSVKGRFTISRDNAKNTVYLQMKSLKPEDTAVYYFAADGYYRDWYGYGYWGLGTQVTVSS | high polyreactivity
QVQLVESGGGLVQAGGSLRLSCAASGFIISRNAMGWYRQAPGKERELVAAIRTRTGSTYYADSVKGRFTISRDNAKNTVYLQMNSLKPEDTAVYYCNAYPYVNGRYGSWGQGTQVTVSS | high polyreactivity
QVQLVESGGGLVQAGGSLRLSCAASGFIISYYAMGWYRQAPGKDRELVAAISWRGGSTYYADSVKGRFTISRDNAKNTVYLQMNSLKPEDTAVYYCAADFLYGAEGNDYWGQGTQVTVSS | high polyreactivity
QVQLVESGGGLVQAGGSLRLSCAASGFIISYYAMGWYRQAPGKERELVATINFSGAGTSYADSVKGRFTISRDNAKNTVYLQMNSLKPEDTAVYYCAARTNSPRGYGSDYWGQGTQVTVSS | high polyreactivity
QVQLVESGGGLVQAGGSLRLSCAASGFIITSYAMGWYRQAPGKERELVATISSSGGTTYYADSVKGRFTISRDTAKNTVYLQMNSLKPEDTAVYYCAKDAFGWGRVYYYRSGYWGQGTQVTVSS | high polyreactivity
